The values below come from patent US20230192896A1 (BIOVERATIV THERAPEUTICS, published 2023).

Positions count from the first letter of the chain named.

As usually defined, the Kd is the free concentration of one partner at which half of the binding sites on the other are occupied at equilibrium, for simple one-to-one binding. Lower therefore signals a tighter complex.

Assay [1] concerns the target T1, free FIXa (activated Factor IX) (human, UniProt P00740 47-191; P00740 227-461).
T1 construct: BLI antigen bought from Haematologic Technologies (HCIXA-0050); also called factor IXa
Briefly: BLI, IgG on AHQ sensor, 100 nM antigen (the weaker partner).
Description: BLI was performed on the OctetRed94 or the Octet HTX system, according to standard procedure. Briefly, biosensors were equilibrated in Tris-buffered saline supplemented with 5 mM CaCl₂ and 0.1% bovine serum albumin (TBSFCa). Plates were then transferred to the instrument. A soak step was performed on the instrument, with incubation of the biosensors for 60 seconds in TBSFCa. […] Following this, the biosensors were incubated in TBSFCa for 60 seconds to establish baseline. Next, the biosensors were transferred to wells containing the desired antigen (100 nM in TBSFCa) and incubated for 90 seconds. Finally, the sensors were transferred to TBSFCa alone for 90 seconds incubation.

The target of the next assay is T2, FXa-SM (FXa+EGR-CMK) (human, UniProt P00742 41-179; P00742 235-488, EGR-CMK covalently bound to the active site).
T2 construct: Bought from Haematologic Technologies (HCXA-EGR); also called covalently modified FXa; FXa mimic
Briefly: BLI; class meaning: paragraph 285. (In general: BLI is a label-free optical method that tracks binding on a fibre tip over time.)

Assay [2] concerns the target T1, free FIXa (activated Factor IX). Description: yeast display selection and BLI as in Examples 1 and 5.
Assay [3] deals with T3, FX zymogen (Homo sapiens (Human), UniProt P00742 41-179; P00742 183-488).
T3 construct: Light and heavy chain of secreted FX zymogen, disulfide linked; also called Factor X zymogen; factor X zymogen
Briefly: not stated (Table 3).

The target of the next assay is T4, activated Factor X (FXa) (Homo sapiens (Human), UniProt P00742 41-179; P00742 235-488).
T4 construct: also called free FXa; factor Xa
Briefly: BLI, antibody on AHQ sensor.

In assay [4] the target is T5, FIXa-SM (FIXa+EGR-CMK) (human, UniProt P00740 47-191; P00740 227-461, EGR-CMK (L-Glu-Gly-Arg chloromethyl ketone) covalently bound to the active site).
T5 construct: BLI antigen bought from Haematologic Technologies (HCIXA-EGR); also called FIXa with substrate mimic
Description: BLI; class meaning: paragraph 914.

Assay [5] has as its target T1, free FIXa (activated Factor IX). Description: BLI, 200 nM FIXa in HBS with or without 5 mM CaCl2.
The target is the same in assay [6]. Description: cell-based or functional assay.
The target in assay [7] is T3, FX zymogen. Briefly: not stated (FIG. 24B).
Assay [8] addresses T1, free FIXa (activated Factor IX). Description: not stated (FIG. 24B).
Assay [9] addresses T6, FIX zymogen (non-activatable FIX) (human, UniProt P00740 47-461).
T6 construct: also called FIXn; Factor IX zymogen
Description: not stated (FIG. 24B).

The target of assay [10] is T1, free FIXa (activated Factor IX). Description: Fab mixed 1.5:1 with FIXa, complex purified by size exclusion chromatography. (In general: Size exclusion chromatography separates by hydrodynamic size, large species first.)
Description: To do this, we first cloned, expressed, and purified only the Fab portion of each of these antibodies using standard methods. Subsequently, we mixed each Fab in a 1.5:1 molar ratio with FIXa in a calcium containing buffer and purified the resulting complex from excess Fab using size exclusion chromatography.
For assay [11], the target named is T5, FIXa-SM (FIXa+EGR-CMK). Briefly: BLI co-binding: biotinylated FIXa-SM on streptavidin sensor, then 100 nM bispecific, then 200 nM FX.
Description: Following incubation in Tris-buffered saline supplemented with 0.1% bovine serum albumin and 5 mM CaCl₂ (referred to as buffer in FIG. 21), the biosensors were then incubated with biotinylated FIXa-SM produced in-house. […] Finally, the same biosensors were incubated with 200 nM of non-biotinylated FX (non-activated Factor X).

T2 sequence (P00742 41-179, chain 1 of 2): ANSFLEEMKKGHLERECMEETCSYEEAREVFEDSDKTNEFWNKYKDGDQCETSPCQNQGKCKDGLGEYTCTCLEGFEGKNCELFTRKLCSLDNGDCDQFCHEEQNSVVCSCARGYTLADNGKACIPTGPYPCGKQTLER
T2 sequence (P00742 235-488, chain 2 of 2): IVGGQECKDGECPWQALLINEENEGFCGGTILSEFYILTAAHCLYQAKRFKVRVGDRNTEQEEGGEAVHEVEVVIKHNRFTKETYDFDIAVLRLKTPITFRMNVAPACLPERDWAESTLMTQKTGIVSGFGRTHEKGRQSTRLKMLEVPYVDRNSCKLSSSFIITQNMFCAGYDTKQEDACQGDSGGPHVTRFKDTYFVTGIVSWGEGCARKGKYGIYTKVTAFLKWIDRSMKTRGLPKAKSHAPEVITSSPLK
T3 sequence (P00742 41-179, chain 1 of 2): as the sequence (P00742 41-179, chain 1 of 2) above
T3 sequence (P00742 183-488, chain 2 of 2): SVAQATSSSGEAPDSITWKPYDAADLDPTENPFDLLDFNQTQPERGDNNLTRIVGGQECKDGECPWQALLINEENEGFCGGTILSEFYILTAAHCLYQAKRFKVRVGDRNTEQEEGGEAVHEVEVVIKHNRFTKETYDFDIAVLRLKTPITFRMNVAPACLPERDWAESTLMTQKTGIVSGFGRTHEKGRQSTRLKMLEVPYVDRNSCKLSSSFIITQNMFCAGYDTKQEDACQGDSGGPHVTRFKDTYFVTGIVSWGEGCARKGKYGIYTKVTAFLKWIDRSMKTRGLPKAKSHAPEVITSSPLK
T4 sequence (P00742 41-179, chain 1 of 2): as the sequence (P00742 41-179, chain 1 of 2) above
T4 sequence (P00742 235-488, chain 2 of 2): as the sequence (P00742 235-488, chain 2 of 2) above

B1: BIIB-9-397 (antibody, V domains shown)
VH: QVQLQESGPGLVKPSETLSLTCAVSGYSISSGYYWAWIRQPPGKGLEWIGSIYHSGSTYYNPSLKSRVTISVDTSKNQFSLKLSSVTAADTAVYYCARDVWYVGGFDPWGQGTLVTVSS
VL: DIQMTQSPSSLSASVGDRVTITCQASQDISNYLNWYQQKPGKAPKLLIYDASNLETGVPSRFSGSGSGTDFTFTISSLQPEDIATYYCQQSDDHPPTFGGGTKVEIK
notes: IgG
For B1, the binding result in [1] was “binds”.

B2: BIIB-9-612 (antibody, V domains shown)
VH: QVQLVQSGAEVKKPGASVKVSCKASGYTFTSYYMHWVRQAPGQGLEWMGIINPSGGSTSYAQKFQGRVTMTRDTSTSTVYMELSSLRSEDTAVYYCARDAGYHWYGMDVWGQGTTVTVSS
VL: EIVLTQSPATLSLSPGERATLSCRASQSVSRYLAWYQQKPGQAPRLLIYDASNRATGIPARFSGSGSGTDFTLTISSLEPEDFAVYYCQQSSLFPLTFGGGTKVEIK
notes: IgG
As to B2, the binding result in [1] is recorded as “binds”.

B3: BIIB-12-1321 (antibody, V domains shown)
VH: QVQLVQSGAEVKKPGSSVKVSCKASGGTFSSYAISWVRQAPGQGLEWMGGIIPIFGTANYAQKFQGRVTITADESTSTAYMELSSLRSEDTAVYYCARTPDTSSATDWGQGTLVTVSS
VL: B2 VL with L4M, R31S, A51S, S91F, S92T, L93N, F94L, L96Y
notes: IgG
As for B3, the binding result with FXa-SM (FXa+EGR-CMK) is on record as “binds”.

B4: BIIB-9-3745 (antibody, V domains shown)
VH: QVQLVQSGAEVKKPGASVKVSCKASGYTFTGYPMHWVRQAPGQGLEWMGSINPSRGSTSYAQKFQGRVTMTRDTSTSTVYMELSSLRSEDTAVYYCARDGPRVSDYYMDVWGKGTTVTVSS
VL: B2 VL with R31S, S91R, S92D, L93N, F94W, L96F
notes: daughter of BIIB-9-619
As for B4, the binding result in [2] is given as “binds”.

B5: BIIB-12-894 (antibody, V domains shown)
VH: QLQLQESGPGLVKPSETLSLTCTVSGGSISSSSYYWGWIRQPPGKGLEWIGSIYYSGSTYYNPSLKSRVTISVDTSKNQFSLKLSSVTAADTAVYYCAREGAHSSMAGLDVWGQGTMVTVSS
VL: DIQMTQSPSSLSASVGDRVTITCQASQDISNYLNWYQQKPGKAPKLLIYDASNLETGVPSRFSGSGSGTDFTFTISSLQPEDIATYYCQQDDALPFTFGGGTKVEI
notes: IgG
Take B5: in the assay with FXa-SM (FXa+EGR-CMK), the binding result is reported as “binds”.

B6: BIIB-9-578 (antibody, V domains shown)
VH: QLQLQESGPGLVKPSETLSLTCTVSGGSISSSSYYWGWIRQPPGKGLEWIGSISYSGSTYYNPSLKSRVTISVDTSKNQFSLKLSSVTAADTAVYYCARDKYQDYSFDIWGQGTMVTVSS
VL: DIQMTQSPSSVSASVGDRVTITCRASQGIDSWLAWYQQKPGKAPKLLIYAASSLQSGVPSRFSGSGSGTDFTLTISSLQPEDFATYYCQQANFLPFTFGGGTKVEIK
notes: IgG
B6: the binding result in [1] was “binds”.

B7: BIIB-9-631 (antibody, V domains shown)
VH: QVQLVQSGAEVKKPGASVKVSCKASGYTFTSYYMHWVRQAPGQGLEWMGIINPSGGSTSYAQKFQGRVTMTRDTSTSTVYMELSSLRSEDTAVYYCARAENRGDYEAWGQGTLVTVSS
VL: B6 VL with D30S, S31R, A91R, N92T, F93S, L94F, F96L
notes: IgG
Take B7: the binding result in [1] is given as “binds”.

B8: BIIB-12-1320 (antibody, V domains shown)
VH: QLQLQESGPGLVKPSETLSLTCTVSGGSISSSSYYWGWIRQPPGKGLEWIGSIYYSGSTYYNPSLKSRVTISVDTSKNQFSLKLSSVTAADTAVYYCARGSGLLVREHYYYYMDVWGKGTTVTVS
VL: B6 VL with V11L, G28S, D30S, W32Y, A34N, N92D, F93D, L94T, F96W
notes: IgG
For the molecule B8, the binding result with FXa-SM (FXa+EGR-CMK) was “binds”.

B9: BIIB-9-3704 (antibody, V domains shown)
VH: QVQLQESGPGLVKPSQTLSLTCTVSGGSISSGAYAWSWIRQHPGKGLEWIGYIYYQGKTYYNPSLKSRVTISVDTSKNQFSLKLSSVTAADTAVYYCARDKYQDYSFDIWGQGTMVTVSS
VL: B6 VL
notes: daughter of BIIB-9-578
As for B9, the binding result in [2] was “binds”.

B10: BIIB-9-3780 (antibody, V domains shown)
VH: B6 VH with F107V
VL: B6 VL
notes: daughter of BIIB-9-578
Regarding B10, the binding result in assay [2] is reported as “binds”.

B11: BS-027 (antibody, V domains shown)
VH: EVQLVQSGAEVKKPGESLKISCKGSGYSFTTYWIGWVRQMPGKGLEWMGIIYPGDSDTRYSPSFQGQVTISADKSISTAYLQWSSLKASDTAMYYCARGRFRPRGRFDYWGQGTLVTVSS
VL: EIVMTQSPATLSVSPGERATLSCRASQSVSSNLAWYQQKPGQAPRLLIYGASTRATGIPARFSGSGSGTEFTLTISSLQSEDFAVYYCQQLFNHPPTFGGGTKVEIK
notes: also called anti-FX arm of BS-027025 and BS-027125; BS-027 FX homodimer
As to B11, the Kd in the assay with FX zymogen [3] is 20 nM.

B12: BIIB-12-917 (antibody, V domains shown)
VH: B11 VH
VL: B11 VL
notes: IgG
With B12, in the assay with activated Factor X (FXa), the binding result is recorded as “no binding (tested: 250 nM)”.

B13: BIIB-9-484 (antibody, V domains shown)
VH: EVQLVESGGGLVKPGGSLRLSCAASGFTFSSYSMNWVRQAPGKGLEWVSSISSSSSYIYYADSVKGRFTISRDNAKNSLYLQMNSLRAEDTAVYYCARDVGGYAGYYGMDVWGQGTTVTVSS
VL: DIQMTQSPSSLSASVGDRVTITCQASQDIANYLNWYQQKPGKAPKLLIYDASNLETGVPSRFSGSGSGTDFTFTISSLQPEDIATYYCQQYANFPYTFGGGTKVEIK
notes: IgG
B13: the binding result (in the assay with FIXa-SM (FIXa+EGR-CMK) [4]; in assay [5]) was “binds” throughout.

B14: BS-027125 (bispecific antibody, V domains shown)
VH 1: B13 VH with S30G, S33D, S54G, S55E, D62E
VL 1: not shown
VH 2: B11 VH
VL 2: B11 VL
Regarding B14, in [6], the “rate of substrate (ADG299) cleavage by FIXa (amidolytic activity)” value (“rate of substrate (ADG299) cleavage” for short) worked out at 3 fold. Moreover, the values for the Kd (in the assay with FX zymogen [7]; in assay [8]; in [9]) were 20 nM, 2 nM and 8 nM, respectively.

B15: Fab portion of BIIB-9-484 (Fab, V domains shown)
VH: B13 VH
VL: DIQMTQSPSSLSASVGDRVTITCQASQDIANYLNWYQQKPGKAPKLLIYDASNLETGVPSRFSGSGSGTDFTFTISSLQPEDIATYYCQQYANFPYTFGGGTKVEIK
notes: Fab
B15: the binding result in [10] is “binds”.

B16: BIIB-9-3764 (antibody, V domains shown)
VH: B13 VH with S30G, S33D, S54G, S55E, D62E
VL: DIQMTQSPSSLSASVGDRVTITCGANQYISDYLNWYQQKPGKAPKLLIYDAANLHTGVPSRFSGSGSGTDFTFTISSLQPEDIATYYCQQYARFPYTFGGGTKVEIK
Consider B16, for which the binding result in [2] is reported as “binds”.

B17: BIIB-9-1336 one-armed (antibody, V domains shown)
VH: B13 VH with S30G, S33D, S54G, S55E, D62E
VL: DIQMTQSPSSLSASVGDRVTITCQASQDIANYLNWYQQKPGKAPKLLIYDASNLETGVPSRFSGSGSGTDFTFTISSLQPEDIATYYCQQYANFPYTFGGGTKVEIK
Regarding B17, in assay [6], the “rate of substrate (ADG299) cleavage” value was 3 fold.

B18: BIIB-9-1335 (antibody, V domains shown)
VH: B13 VH with S33D, N35H, S54G
VL: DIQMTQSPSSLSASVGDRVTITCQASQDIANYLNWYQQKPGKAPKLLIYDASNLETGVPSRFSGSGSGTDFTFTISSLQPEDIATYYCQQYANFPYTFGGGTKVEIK
Take B18: the “rate of ATIII inhibition of FIXa (ATIII-FIXa complex band on gel)” value in assay [6] was roughly 3 fold.

B19: BIIB-9-1336 (antibody, V domains shown)
VH: B13 VH with S30G, S33D, S54G, S55E, D62E
VL: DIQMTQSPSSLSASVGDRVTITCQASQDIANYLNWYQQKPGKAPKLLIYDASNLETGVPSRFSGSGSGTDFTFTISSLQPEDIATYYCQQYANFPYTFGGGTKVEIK
B19: in [6], the “rate of ATIII inhibition of FIXa (ATIII-FIXa complex band on gel)” value is roughly 3 fold and the “rate of substrate (ADG299) cleavage” value was determined as 3 fold.

B20: BIIB-9-484/BIIB-12-917 (bispecific antibody, V domains shown)
VH 1: B13 VH
VL 1: not shown
VH 2: B11 VH
VL 2: B11 VL
Turning to B20, in the assay with FIXa-SM (FIXa+EGR-CMK) [11], the binding result is on record as “binds”.
